Measured values: patent US20200308303A1 (KATHOLIEKE UNIVERSITEIT LEUVEN, published 2020)

Biological target: ovine ADAMTS13 (sheep (ovine))
Assay: cell-based or functional assay

B1: monoclonal anti-ADAMTS13 antibody 17C7 (antibody, V domains shown)
VH: EVQLVESGGDLVKSGGSLKLSCAASGFIFSNYAMSWVRQTPEKRLEWGATITTGGFYTFYSDSVKGRFTISRDNAKNTLYLQMSSLRSEDTAMYYCARHRYDDYYALDYWGQGTSVTVSS
VL: ENVLTQSPAIMSTSPGEKVTMTCNVSSSVSYMRWFQQKSSTSPKLWIYDTSKLASGVPGRFSGSGSGHSYSLTISSMEADDVATYYCFQGNGYPLTFGAGTKLELK
modifications: Biotinylated when used as detector; the site is not stated and the letters cannot carry it.
  half maximal inhibitory concentration (IC50) of ADAMTS13 activity in ovine plasma, FRETS-VWF71 assay: 2.4 µg/mL
